According to publication PMC7531118, “Investigating host-microbiome interactions by droplet based microfluidics” (Microbiome, 2020):

Tests used:
[1] = tested on: CC(=O)N[C@H]1[C@H](Oc2ccc([N+](=O)[O-])cc2)O[C@H](CO)[C@@H](O)[C@@H]1O; test: purified protein; settings: citrate buffer pH 5.5, 0.25 to 1.5 mM substrate, 30.0 °C
[2] = tested on: CC(=O)N[C@H]1[C@H](Oc2ccc([N+](=O)[O-])cc2)O[C@H](CO)[C@H](O)[C@@H]1O; test: purified protein; settings: citrate buffer pH 5.5, 0.25 to 1.5 mM substrate, 30.0 °C

“Uhgb_GH123 (Phocaeicola plebeius DSM 17135)” showed a Km [1] of 3.87 ± 0.27 mM, a kcat [1] of 0.33 ± 0.02 s⁻¹ and a kcat/Km [1] of 85 M⁻¹ s⁻¹. For the same substance, the Km [2] was 1.17 ± 0.10 mM, the kcat [2] was 21.2 ± 1.18 s⁻¹ and the kcat/Km [2] was 18200 M⁻¹ s⁻¹.
